This is an account of results in patent publication US8916149B2, “Preventing and treating sepsis” (University of Rochester, priority 2008, dated 2014).

For one assay, the target named is T1, α3β1 (Homo sapiens, UniProt P05556+P26006).
T1 construct: purchased US Biological, Swampscott, Mass
Nature of the assay: Solid phase integrin ligand binding assay. The following applies: 1 mM Mn2+, 1 mM Ca2+, 1 mM Mg2+. On the procedure: (§1) The solid phase binding assay was performed using purified soluble human α3β1, α5β1, and αVβ3 (US Biological, Swampscott, Mass.). Two (2) μg/ml of soluble integrins were added to microtiter wells for capture with immobilized monoclonal antibody against β1 or β3 subunits (mAb TS2/6 for β1 and mAb BB10 (Chemicon, Temecula, Calif.) for β3 integrins). […] After washing, bound APC was chromogenically detected by peroxidase-streptavidin conjugate anti-PC (Diapharma, West Chester, Ohio) or chromogenic substrate S-2366 (Diapharma, West Chester, Ohio). To minimize dissociation, all wash buffers contained 1 mM Mn^2+, and <15 minutes elapsed between the end of binding and beginning of color development. Functional blocking antibodies for integrins were from Chemicon (Temecula, Calif.).
(§2) Among the neutrophil integrins that recognize the RGD motif, α3β1, α5β1, and αVβ3 are key in regulating neutrophil chemotaxis (Yauch et al., Mol. Biol. Cell 9:2751 (1998); Burns et al., J. Immunol. 166:4644 (2001); Sixt et al., J. Biol. Chem. 276:18878 (2001)). To test whether APC can bind directly to the integrins, an ELISA-like solid phase receptor-binding assay was performed (FIG. 2E). Soluble α3β1, α5β1, and αVβ3 were captured onto microtiter wells using mAbs specific for β1 or β3.

The next assay deals with T2, αVβ3 (Homo sapiens, UniProt P05106+P06756).
T2 construct: purchased US Biological, Swampscott, Mass
Nature of the assay: Solid phase integrin ligand binding assay. The following applies: 1 mM Mn2+, 1 mM Ca2+, 1 mM Mg2+. On the procedure: as §1, §2

Another assay has as its target T3, α5β1 (Homo sapiens, UniProt P05556+P08648).
T3 construct: purchased US Biological, Swampscott, Mass
Nature of the assay: Solid phase integrin ligand binding assay. The following applies: 1 mM Mn2+, 1 mM Ca2+, 1 mM Mg2+. As to the method: as §1, §2

The subject of assay [1] is human neutrophils. Nature of the assay: Micropipette assay (directional migration toward fMLP tip). The class given is cell-based. On the procedure: Delta T dishes were coated with human FN (50 μg/ml, BD Biosciences, San Jose, Calif.) for overnight at 4° C. and then for 4 h at room temperature. Plates were then rinsed with L-15 media. […] The cells were then added to FN-coated dishes in 1.5 ml of L-15 with 2 mg/ml of glucose. For neutrophil live cell staining, 2 μM Green Cell Tracker CMFDA (5-chloromethylfluorescein diacetate; Molecular Probes, Carlsbad, Calif.) was used. Temperature was maintained at 37° C. throughout the experiment using a FCS2 live-cell imaging chamber (Bioptechs, Butler, Pa.). Images were acquired for 30 to 60 minutes under a 10× objective lens using a Nikon TE-2000U inverted microscope. Phase contrast images were acquired every 5 seconds and fluorescence images every 30 seconds. Cell paths were traced using MetaVue™ imaging software (Molecular Devices Corporation, Downingtown, Pa.).
Directional migration was investigated using a micropipette assay to analyze the dynamics of neutrophil migration on different integrin ligands. Sterile Femtotips II micropipette tips (Eppendorf, Westbury, N.Y.) were loaded with 5 μl of 1 μM fMLP and then placed on the bottom of FN-coated delta T dishes that had been pre-warmed to 37° C. Image acquisition began within 2 minutes of tip placement.
The time-lapsed images of migrating neutrophils were taken under phase contrast microscopy. Each image was thresholded and binarized based on brightness to define the centroids of the neutrophils. The closest centroids between consecutive images were linked as a trajectory under the assumption that these centroids were made by the same neutrophil. The maximum distance between the closest centroids was also defined to preclude the artifacts due to cells moving into and out of the field of view.

In assay [2] the test system is lipopolysaccharide (LPS)-induced pulmonary inflammation. The following applies: intravenous administration; cited from earlier work.
Assay [3] deals with patients with severe sepsis. The following applies: subset of patients; cited from earlier work.
Assay [4] relates to human neutrophils. Nature of the assay: rhAPC binding to neutrophils in suspension (chromogenic substrate S-2366). The following applies: 1 mM Ca2+ and 1 mM Mg2+ supplemented with 1 mM Mn2+. On the procedure: Control (PBS) or rhAPC-treated neutrophils were incubated with the indicated concentrations of MgCl2 and CaCl2. The LIBS of β1 and β3 integrins were detected by B44 and D3 mAb, respectively. *P<0.05 vs. PBS treated cells. […] Experiments were repeated on neutrophil preparations from three independent donors. In FIGS. 2A, 2C, 2D, 2E, and 2F, results are expressed as mean±SEM of three independent experiments.
The best characterized integrin binding motif is the RGD sequence, which is present in FN, fibrinogen, von Willebrand factor, vitronectin, and a variety of other adhesion proteins. Many integrins that bind to extracellular protein ligands including α3β1, α5β1, αIIbβ3, and αVβ3, specifically interact with the RGD sequence of their target proteins. […] To test this hypothesis, rhAPC-binding assays were performed with neutrophils in suspension. The assay buffer containing 1 mM Ca^2+ and 1 mM Mg^2+ was supplemented with 1 mM Mn^2+ to activate cell surface integrins.

Assay [5] has as its system human neutrophils. Nature of the assay: Neutrophil adhesion assay on immobilized fibronectin (FN). The following applies: 10 μg/ml protein. The class given is cell-based. On the procedure:
The adhesion assay was carried out essentially as described (Vorup-Jensen et al., PNAS 102:1614 (2005)). Cover slips were coated with FN in coating buffer (150 mM NaCl/20 mM Tris.HCl, pH 9.0) for over night at 4° C. and for 4 hours at room temperature. Residual binding sites were blocked by incubation of the wells with 0.05% (wt/vol) polyvinylpyrrolidone in PBS for 30 minutes at room temperature. […] The cover slips were aspirated, and washed with L15 medium. […] Cells (250 μl) were then immediately added, and further incubated at 37° C. for 15 minutes. Unbound cells were then washed with warm L15 medium. The bound cells were then fixed with formaldehyde. For each experimental condition from three independent donors, five random phase-contrast images were obtained, and the number of cells in each well was scored from printed micrographs.

Assay [6] deals with human neutrophils. Nature of the assay: Under-agarose migration assay (directional migration). The class given is cell-based. The following applies: 10 μg/ml rhAPC. On the procedure:
Delta T dishes (Bioptechs, Butler, Pa.) were coated with fibronectin (FN). Plates were then rinsed with the appropriate media and allowed to air-dry. Molten agarose (Seakem GTG, FMC Bioproducts, Rockland, Me.) was prepared as described (Harler et al., J Immunol., 162:6792 (1999)). Two milliliters of the resulting gel was added to each dish and allowed to solidify at 4° C. for 5 min. Three wells that were 2 mm apart were prepared in the agarose using a template and a beveled punch that was coated with polymixin B. Care was taken to ensure that the plate bottom was not scratched. Punch sections were removed with an aspirator, and the gel was then equilibrated for one hour at 37° C. The wells were then aspirated and loaded with […] of one of the following: PBS (left well), a suspension containing approximately 200,000 cells (middle well), or a solution containing 5 pmol of fMLP (right well). […] The dishes were incubated for 60 min at 37° C., and then fixed with 10% buffered formalin. Counts were then made of the number of cells that had migrated 1 mm towards the right well (towards fMLP, directional migration), 0.5 mm towards the left and right wells (“straddle”), and 1 mm towards the left well (random migration). The experiments were repeated three times per condition.

Entries after “also recorded” stand apart in the source; their conditions may differ.

T3 sequence (P08648 42-894 limits assumed): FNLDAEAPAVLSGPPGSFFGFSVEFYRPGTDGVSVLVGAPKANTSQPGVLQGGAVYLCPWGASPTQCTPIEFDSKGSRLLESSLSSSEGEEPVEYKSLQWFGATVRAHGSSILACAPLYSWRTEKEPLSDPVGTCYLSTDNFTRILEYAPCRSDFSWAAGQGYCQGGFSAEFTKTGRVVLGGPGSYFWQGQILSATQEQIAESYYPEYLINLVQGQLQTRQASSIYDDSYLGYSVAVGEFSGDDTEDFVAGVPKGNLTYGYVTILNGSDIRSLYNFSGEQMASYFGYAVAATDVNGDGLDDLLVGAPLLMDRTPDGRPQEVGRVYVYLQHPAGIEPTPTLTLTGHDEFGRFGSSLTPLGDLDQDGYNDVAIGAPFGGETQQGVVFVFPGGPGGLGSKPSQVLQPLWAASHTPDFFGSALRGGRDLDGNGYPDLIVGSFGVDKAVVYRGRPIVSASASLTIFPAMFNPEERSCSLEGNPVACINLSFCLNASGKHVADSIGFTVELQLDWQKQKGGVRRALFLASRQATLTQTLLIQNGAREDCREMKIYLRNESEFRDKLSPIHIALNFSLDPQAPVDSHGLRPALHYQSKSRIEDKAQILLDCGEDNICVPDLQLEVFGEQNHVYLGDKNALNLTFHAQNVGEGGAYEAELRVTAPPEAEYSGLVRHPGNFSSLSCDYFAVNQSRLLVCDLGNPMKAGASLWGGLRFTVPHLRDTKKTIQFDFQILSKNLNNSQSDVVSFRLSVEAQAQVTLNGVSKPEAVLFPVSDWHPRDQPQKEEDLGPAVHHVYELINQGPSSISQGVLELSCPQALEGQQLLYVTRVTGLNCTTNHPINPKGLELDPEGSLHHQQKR
T3 sequence (P08648 895-1049 partner limits assumed): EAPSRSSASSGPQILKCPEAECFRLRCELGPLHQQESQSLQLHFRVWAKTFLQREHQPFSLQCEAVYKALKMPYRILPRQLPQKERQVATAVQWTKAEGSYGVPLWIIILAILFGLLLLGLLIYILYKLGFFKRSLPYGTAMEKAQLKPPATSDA
T3 sequence (P05556 21-798): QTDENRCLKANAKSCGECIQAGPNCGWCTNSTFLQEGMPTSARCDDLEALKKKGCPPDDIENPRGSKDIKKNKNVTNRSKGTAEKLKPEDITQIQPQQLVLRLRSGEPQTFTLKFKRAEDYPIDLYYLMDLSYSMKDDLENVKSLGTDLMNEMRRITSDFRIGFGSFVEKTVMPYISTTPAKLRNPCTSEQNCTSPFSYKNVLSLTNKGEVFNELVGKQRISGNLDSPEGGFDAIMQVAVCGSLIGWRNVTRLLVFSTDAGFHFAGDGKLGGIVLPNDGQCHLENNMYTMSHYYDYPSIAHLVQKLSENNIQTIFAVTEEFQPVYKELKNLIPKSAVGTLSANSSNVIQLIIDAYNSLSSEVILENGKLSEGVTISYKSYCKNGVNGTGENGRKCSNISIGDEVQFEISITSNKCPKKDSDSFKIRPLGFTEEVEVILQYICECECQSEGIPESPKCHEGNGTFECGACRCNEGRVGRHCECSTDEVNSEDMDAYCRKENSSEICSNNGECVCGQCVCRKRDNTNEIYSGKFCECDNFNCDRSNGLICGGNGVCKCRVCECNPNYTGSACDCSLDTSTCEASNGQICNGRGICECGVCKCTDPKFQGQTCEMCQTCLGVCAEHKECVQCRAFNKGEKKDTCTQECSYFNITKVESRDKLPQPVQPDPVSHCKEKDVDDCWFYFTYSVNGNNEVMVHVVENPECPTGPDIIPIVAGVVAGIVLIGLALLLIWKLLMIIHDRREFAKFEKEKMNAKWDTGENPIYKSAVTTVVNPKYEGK
T1 sequence (P26006 33-872 limits assumed): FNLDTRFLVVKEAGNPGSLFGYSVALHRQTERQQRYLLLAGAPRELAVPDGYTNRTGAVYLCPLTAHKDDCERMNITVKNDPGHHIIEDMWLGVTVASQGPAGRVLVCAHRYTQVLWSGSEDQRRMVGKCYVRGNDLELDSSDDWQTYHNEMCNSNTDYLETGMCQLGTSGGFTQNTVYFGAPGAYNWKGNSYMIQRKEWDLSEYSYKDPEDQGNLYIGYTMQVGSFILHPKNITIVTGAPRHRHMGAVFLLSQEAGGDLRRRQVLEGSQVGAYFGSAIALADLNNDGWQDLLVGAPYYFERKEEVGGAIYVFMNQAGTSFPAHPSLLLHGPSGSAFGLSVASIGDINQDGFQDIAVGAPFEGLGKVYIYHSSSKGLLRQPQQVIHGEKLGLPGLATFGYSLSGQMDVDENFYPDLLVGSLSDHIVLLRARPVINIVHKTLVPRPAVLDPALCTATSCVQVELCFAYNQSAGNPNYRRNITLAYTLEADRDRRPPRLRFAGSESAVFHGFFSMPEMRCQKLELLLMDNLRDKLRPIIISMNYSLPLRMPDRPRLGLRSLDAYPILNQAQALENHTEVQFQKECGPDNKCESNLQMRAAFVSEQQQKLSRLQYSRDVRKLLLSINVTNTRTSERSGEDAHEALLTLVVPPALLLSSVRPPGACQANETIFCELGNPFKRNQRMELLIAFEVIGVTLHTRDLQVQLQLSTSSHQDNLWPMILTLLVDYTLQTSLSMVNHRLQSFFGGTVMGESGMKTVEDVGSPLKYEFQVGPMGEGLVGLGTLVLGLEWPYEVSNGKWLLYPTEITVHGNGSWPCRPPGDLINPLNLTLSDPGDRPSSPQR
T1 sequence (P26006 876-1051 partner limits assumed): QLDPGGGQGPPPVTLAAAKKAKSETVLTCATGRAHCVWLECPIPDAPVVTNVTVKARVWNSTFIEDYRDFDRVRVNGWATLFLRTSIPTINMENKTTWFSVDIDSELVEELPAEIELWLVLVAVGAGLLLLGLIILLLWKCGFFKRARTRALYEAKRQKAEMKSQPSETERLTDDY
T1 sequence (P05556 21-798): as the sequence (P05556 21-798) above
T2 sequence (P06756 31-889 limits assumed): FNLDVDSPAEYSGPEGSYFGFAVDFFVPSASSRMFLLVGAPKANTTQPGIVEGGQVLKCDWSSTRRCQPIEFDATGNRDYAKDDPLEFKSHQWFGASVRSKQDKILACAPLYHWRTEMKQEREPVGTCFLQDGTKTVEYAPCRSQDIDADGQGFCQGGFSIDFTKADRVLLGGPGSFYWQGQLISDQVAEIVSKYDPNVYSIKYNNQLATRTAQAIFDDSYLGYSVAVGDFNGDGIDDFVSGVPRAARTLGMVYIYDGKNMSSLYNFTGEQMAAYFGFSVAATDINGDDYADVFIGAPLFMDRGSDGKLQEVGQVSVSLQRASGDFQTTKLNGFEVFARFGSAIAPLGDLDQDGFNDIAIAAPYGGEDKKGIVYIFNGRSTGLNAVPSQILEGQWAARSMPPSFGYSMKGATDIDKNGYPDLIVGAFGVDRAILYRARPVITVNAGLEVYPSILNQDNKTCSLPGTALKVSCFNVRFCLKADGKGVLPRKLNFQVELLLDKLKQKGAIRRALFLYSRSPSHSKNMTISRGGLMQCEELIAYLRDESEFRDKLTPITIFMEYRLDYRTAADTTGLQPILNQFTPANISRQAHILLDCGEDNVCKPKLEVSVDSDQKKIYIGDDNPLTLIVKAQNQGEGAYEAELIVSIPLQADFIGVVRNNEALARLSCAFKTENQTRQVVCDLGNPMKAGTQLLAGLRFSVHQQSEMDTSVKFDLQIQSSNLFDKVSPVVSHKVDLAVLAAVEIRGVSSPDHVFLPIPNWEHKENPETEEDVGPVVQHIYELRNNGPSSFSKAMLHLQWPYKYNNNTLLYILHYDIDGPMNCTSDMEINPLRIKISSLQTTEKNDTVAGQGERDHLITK
T2 sequence (P06756 891-1048 partner limits assumed): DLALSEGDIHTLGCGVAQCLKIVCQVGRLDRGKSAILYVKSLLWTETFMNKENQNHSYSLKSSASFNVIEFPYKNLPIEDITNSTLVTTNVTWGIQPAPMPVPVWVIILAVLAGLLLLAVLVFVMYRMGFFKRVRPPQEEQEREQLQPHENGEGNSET
T2 sequence (P05106 27-788): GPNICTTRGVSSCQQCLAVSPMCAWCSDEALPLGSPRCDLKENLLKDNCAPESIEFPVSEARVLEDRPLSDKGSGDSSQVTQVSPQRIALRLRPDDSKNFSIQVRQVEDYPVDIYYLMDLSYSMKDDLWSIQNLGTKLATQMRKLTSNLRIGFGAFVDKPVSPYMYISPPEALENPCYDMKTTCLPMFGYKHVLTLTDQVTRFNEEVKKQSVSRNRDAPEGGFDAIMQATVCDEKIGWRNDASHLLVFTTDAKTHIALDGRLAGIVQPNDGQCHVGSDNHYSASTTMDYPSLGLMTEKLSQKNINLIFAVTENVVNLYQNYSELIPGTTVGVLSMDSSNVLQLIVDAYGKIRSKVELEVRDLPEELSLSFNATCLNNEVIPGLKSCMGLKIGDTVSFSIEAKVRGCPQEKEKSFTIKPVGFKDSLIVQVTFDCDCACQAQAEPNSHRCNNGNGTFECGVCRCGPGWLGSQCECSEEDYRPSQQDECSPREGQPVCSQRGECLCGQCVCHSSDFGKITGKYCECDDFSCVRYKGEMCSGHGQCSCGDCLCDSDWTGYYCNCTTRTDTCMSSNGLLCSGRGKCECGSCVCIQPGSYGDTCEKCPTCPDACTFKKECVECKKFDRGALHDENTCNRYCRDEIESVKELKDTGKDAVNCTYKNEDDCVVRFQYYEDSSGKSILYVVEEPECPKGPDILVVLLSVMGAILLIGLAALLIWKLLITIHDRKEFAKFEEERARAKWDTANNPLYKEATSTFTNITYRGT

B1: rhAPC: Recombinant human activated protein C obtained from Eli Lilly; FDA-approved drug for severe sepsis (protein)
chain 1: ANSFLEELRHSSLERECIEEICDFEEAKEIFQNVDDTLAFWSKHVDGDQCLVLPLEHPCASLCCGHGTCIDGIGSFSCDCRSGWEGRFCQREVSFLNCSLDNGGCTHYCLEEVGWRRCSCAPGYKLGDDLLQCHPAVKFPCGRPWKRMEKKRSHL
chain 2: LIDGKMTRRGDSPWQVVLLDSKKKLACGAVLIHPSWVLTAAHCMDESKKLLVRLGEYDLRRWEKWELDLDIKEVFVHPNYSKSTTDNDIALLHLAQPATLSQTIVPICLPDSGLAERELNQAGQETLVTGWGYHSSREKEAKRNRTFVLNFIKIPVVPHNECSEVMSNMVSENMLCAGILGDRQDACEGDSGGPMVASFHGTWFLVGLVSWGEGCGLLHNYGVYTKVSRYLDWIHGHIRDKEAPQKSWAP
Take B1: in the assay with α3β1, the “direct binding to soluble α3β1” value was “bound”. Moreover, the “direct binding to soluble αVβ3” value in the assay with αVβ3 is on record as “bound”. In the assay with α5β1, the “direct binding to soluble α5β1” value is “bound”. Further, the direction of movement entry in the assay with human neutrophils [1] is “without significantly altering”. In addition, in the assay with human neutrophils [1] (over 30 neutrophils in each group), the “decrease of average lateral migration speed (S)” value is “more than 2.5 fold”. For the same molecule, in the assay with human neutrophils [1] (rhAPC pre-treatment), the “neutrophil migration on FN toward the fMLP tip” value is listed as “dramatically decreased”. For the same molecule, the LPS-induced pulmonary inflammation entry in assay [2] was “reduce”. In addition, in assay [3], the “mortality in patients with severe sepsis” value is reported as “significantly reduced”. The “rhAPC binding to the neutrophil surface” value in the assay with human neutrophils [4] is given as “significantly increased”. The “fMLP-induced adhesion of human neutrophils to immobilized FN” value in the assay on human neutrophils [5] was “significantly reduced; also recorded: abolished”. In the assay on human neutrophils [6], the “directional migration of neutrophils on FN towards fMLP” value is reported as “decreased”.
